The record followed here is article PMC11372217 (Nature Communications, 2024).

In this experiment the target is His-PADI4 (human, UniProt Q9UM07 1-663). Put plainly: pull-down.
His-PADI4, sequence (Q9UM07 whole entry): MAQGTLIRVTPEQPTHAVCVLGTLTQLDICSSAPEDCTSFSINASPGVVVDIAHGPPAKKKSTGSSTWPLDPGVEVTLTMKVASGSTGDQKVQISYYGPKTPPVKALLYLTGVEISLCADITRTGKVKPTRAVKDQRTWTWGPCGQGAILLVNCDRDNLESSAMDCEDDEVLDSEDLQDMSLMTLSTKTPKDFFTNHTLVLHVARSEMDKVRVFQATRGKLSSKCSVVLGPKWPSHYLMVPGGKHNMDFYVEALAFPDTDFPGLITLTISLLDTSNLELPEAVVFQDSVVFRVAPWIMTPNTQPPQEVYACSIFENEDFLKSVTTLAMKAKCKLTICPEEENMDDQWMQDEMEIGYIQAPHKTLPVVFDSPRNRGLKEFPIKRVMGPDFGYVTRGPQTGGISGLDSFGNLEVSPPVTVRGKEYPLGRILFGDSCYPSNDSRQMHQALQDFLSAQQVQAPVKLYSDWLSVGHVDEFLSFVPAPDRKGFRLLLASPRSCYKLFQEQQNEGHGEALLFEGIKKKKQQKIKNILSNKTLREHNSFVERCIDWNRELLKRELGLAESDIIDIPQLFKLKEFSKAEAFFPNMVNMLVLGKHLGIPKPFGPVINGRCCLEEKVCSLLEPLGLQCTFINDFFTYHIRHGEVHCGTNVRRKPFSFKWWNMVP

B1: GST-HIF-1α (575-786) (domain or fragment, human, UniProt Q16665 575-786, looked up)
chain: RSFDQLSPLESSSASPESASPQSTVTVFQQTQIQEPTANATTTTATTDELKTVTKDRMEDIKILIASPSPTHIHKETTSATSSPYRDTQSRTASPNRAGKGVIEQTEKSHPRSPNVLSVALSQRTTVPEEELNPKILALQNAQRKRKMEHDGSLFQAVGIGTLLQQPDDHAATTSLSWKRVKGCKSSEQNGMEQKTIILIPSDLACRLLGQS
For the molecule B1, the binding result was “binds”.
